# Starred links: 1 amine or outer side, 2 acyl side, 3 side chain; linkers in the order of their positions; H or OH if unused. Non-standard residues stand in square brackets, D forms with d. *: point of attachment. dThr(OBz) = D-threonine with an O-benzyl (OBz) group, C[C@H](OCc1ccccc1)[C@@H](N[*:1])C(=O)[*:2]; Thr(OBz) = threonine with O-benzyl ester (OBz); dBpa = N[C@H](Cc1ccc(C(=O)c2ccccc2)cc1)C(=O)O; Boc = CC(C)(C)OC(=O)*; Aib = CC(C)(N)C(=O)O
# Molecular target: γ-secretase (detergent-solubilized membranes from HeLa cells)
# Test: cell-based or functional assay
row,Binder,Cell-free Assay IC50 (concentration required for 50% inhibition of Aβ40 production) [nM]
1,Boc-[Aib][dV]G[Aib][dV][dV][dI][Aib][dThr(OBz)][dV][Aib][dV][dI][Aib]-OMe (SMILES CC[C@@H](C)[C@@H](NC(=O)[C@H](NC(=O)[C@H](NC(=O)C(C)(C)NC(=O)CNC(=O)[C@H](NC(=O)C(C)(C)NC(=O)OC(C)(C)C)C(C)C)C(C)C)C(C)C)C(=O)NC(C)(C)C(=O)N[C@@H](C(=O)N[C@@H](C(=O)NC(C)(C)C(=O)N[C@@H](C(=O)N[C@@H](C(=O)NC(C)(C)C(=O)OC)[C@H](C)CC)C(C)C)C(C)C)[C@H](C)OCc1ccccc1) [D-peptide Boc-Aib-Val-Gly-Aib-Val-Val-Ile-Aib-Thr(OBz)-Val-Aib-Val-Ile-Aib-OMe (SEQ ID NO:19)],14
2,Boc-VG[Aib]VVI[Aib][Thr(OBz)]V[Aib]VI[Aib]-OMe [L-peptide Boc-Val-Gly-Aib-Val-Val-Ile-Aib-Thr(OBz)-Val-Aib-Val-Ile-Aib-OMe (SEQ ID NO:18)],780
3,Boc-GL[Aib]VG[Aib]VVI[Aib][Thr(OBz)]V[Aib]VI[Aib]-OMe,11000
4,Boc-G[Aib][dV][dV][dI][Aib][dThr(OBz)][dV][Aib][dV][dI][Aib]-OMe (SMILES CC[C@@H](C)[C@@H](NC(=O)[C@H](NC(=O)[C@H](NC(=O)C(C)(C)NC(=O)CNC(=O)OC(C)(C)C)C(C)C)C(C)C)C(=O)NC(C)(C)C(=O)N[C@@H](C(=O)N[C@@H](C(=O)NC(C)(C)C(=O)N[C@@H](C(=O)N[C@@H](C(=O)NC(C)(C)C(=O)OC)[C@H](C)CC)C(C)C)C(C)C)[C@H](C)OCc1ccccc1) [D-peptide Boc-Gly-Aib-Val-Val-Ile-Aib-Thr(OBz)-Val-Aib-Val-Ile-Aib-OMe (SEQ ID NO:17)],12
5,Boc-G[dL][Aib][dV]G[Aib][dV][dV][dI][Aib][dThr(OBz)][dV][Aib][dV][dI][Aib]-OMe (SMILES CC[C@@H](C)[C@@H](NC(=O)[C@H](NC(=O)[C@H](NC(=O)C(C)(C)NC(=O)CNC(=O)[C@H](NC(=O)C(C)(C)NC(=O)[C@@H](CC(C)C)NC(=O)CNC(=O)OC(C)(C)C)C(C)C)C(C)C)C(C)C)C(=O)NC(C)(C)C(=O)N[C@@H](C(=O)N[C@@H](C(=O)NC(C)(C)C(=O)N[C@@H](C(=O)N[C@@H](C(=O)NC(C)(C)C(=O)OC)[C@H](C)CC)C(C)C)C(C)C)[C@H](C)OCc1ccccc1),26
6,Boc-[dL][Aib][dV]G[Aib][dV][dV][dI][Aib][dThr(OBz)][dV][Aib][dV][dI][Aib]-OMe (SMILES CC[C@@H](C)[C@@H](NC(=O)[C@H](NC(=O)[C@H](NC(=O)C(C)(C)NC(=O)CNC(=O)[C@H](NC(=O)C(C)(C)NC(=O)[C@@H](CC(C)C)NC(=O)OC(C)(C)C)C(C)C)C(C)C)C(C)C)C(=O)NC(C)(C)C(=O)N[C@@H](C(=O)N[C@@H](C(=O)NC(C)(C)C(=O)N[C@@H](C(=O)N[C@@H](C(=O)NC(C)(C)C(=O)OC)[C@H](C)CC)C(C)C)C(C)C)[C@H](C)OCc1ccccc1) [D-peptide Boc-Leu-Aib-Val-Gly-Aib-Val-Val-Ile-Aib-Thr(OBz)-Val-Aib-Val-Ile-Aib-OMe (SEQ ID NO:20)],16
7,Boc-[dV][dV][dI][Aib][dThr(OBz)][dV][Aib][dV][dI][Aib]-OMe (SMILES CC[C@@H](C)[C@@H](NC(=O)[C@H](NC(=O)[C@H](NC(=O)OC(C)(C)C)C(C)C)C(C)C)C(=O)NC(C)(C)C(=O)N[C@@H](C(=O)N[C@@H](C(=O)NC(C)(C)C(=O)N[C@@H](C(=O)N[C@@H](C(=O)NC(C)(C)C(=O)OC)[C@H](C)CC)C(C)C)C(C)C)[C@H](C)OCc1ccccc1) [D-peptide Boc-Val-Val-Ile-Aib-Thr(OBz)-Val-Aib-Val-Ile-Aib-OMe (SEQ ID NO:15)],25
8,Boc-G[Aib]VVI[Aib][Thr(OBz)]V[Aib]VI[Aib]-OMe [L-peptide Boc-Gly-Aib-Val-Val-Ile-Aib-Thr(OBz)-Val-Aib-Val-Ile-Aib-OMe (SEQ ID NO:17)],360
9,Boc-L[Aib]VG[Aib]VVI[Aib][Thr(OBz)]V[Aib]VI[Aib]-OMe [L-peptide Boc-Leu-Aib-Val-Gly-Aib-Val-Val-Ile-Aib-Thr(OBz)-Val-Aib-Val-Ile-Aib-OMe (SEQ ID NO:20)],4700
10,Boc-[Aib]VVI[Aib][Thr(OBz)]V[Aib]VI[Aib]-OMe [L-peptide Boc-Aib-Val-Val-Ile-Aib-Thr(OBz)-Val-Aib-Val-Ile-Aib-OMe (SEQ ID NO:16)],3100
11,Boc-[dV]G[Aib][dV][dV][dI][Aib][dThr(OBz)][dV][Aib][dV][dI][Aib]-OMe (SMILES CC[C@@H](C)[C@@H](NC(=O)[C@H](NC(=O)[C@H](NC(=O)C(C)(C)NC(=O)CNC(=O)[C@H](NC(=O)OC(C)(C)C)C(C)C)C(C)C)C(C)C)C(=O)NC(C)(C)C(=O)N[C@@H](C(=O)N[C@@H](C(=O)NC(C)(C)C(=O)N[C@@H](C(=O)N[C@@H](C(=O)NC(C)(C)C(=O)OC)[C@H](C)CC)C(C)C)C(C)C)[C@H](C)OCc1ccccc1) [D-peptide Boc-Val-Gly-Aib-Val-Val-Ile-Aib-Thr(OBz)-Val-Aib-Val-Ile-Aib-OMe (SEQ ID NO:18)],0.14
12,Boc-[Aib][dV][dV][dI][Aib][dThr(OBz)][dV][Aib][dV][dI][Aib]-OMe (SMILES CC[C@@H](C)[C@@H](NC(=O)[C@H](NC(=O)[C@H](NC(=O)C(C)(C)NC(=O)OC(C)(C)C)C(C)C)C(C)C)C(=O)NC(C)(C)C(=O)N[C@@H](C(=O)N[C@@H](C(=O)NC(C)(C)C(=O)N[C@@H](C(=O)N[C@@H](C(=O)NC(C)(C)C(=O)OC)[C@H](C)CC)C(C)C)C(C)C)[C@H](C)OCc1ccccc1) [D-peptide Boc-Aib-Val-Val-Ile-Aib-Thr(OBz)-Val-Aib-Val-Ile-Aib-OMe (SEQ ID NO:16)],28
13,Boc-VVI[Aib][Thr(OBz)]V[Aib]VI[Aib]-OMe [L-peptide Boc-Val-Val-Ile-Aib-Thr(OBz)-Val-Aib-Val-Ile-Aib-OMe (SEQ ID NO:15)],10000
14,Boc-[Aib]VG[Aib]VVI[Aib][Thr(OBz)]V[Aib]VI[Aib]-OMe [L-peptide Boc-Aib-Val-Gly-Aib-Val-Val-Ile-Aib-Thr(OBz)-Val-Aib-Val-Ile-Aib-OMe (SEQ ID NO:19)],910

# Molecular target: T1, γ-secretase in Chinese hamster ovary (CHO) cells stably transfected with human APP
# Test: cell-based or functional assay
Binder,IC50 in the same cell-based assay using CHO cells stably transfected with human APP (total Aβ production) [nM],IC50 in a cell-based assay from APP-transfected CHO cells [nM],IC50 of Aβ production in APP-transfected cells [nM]
Boc-[dV]G[Aib][dV][dV][dBpa][Aib][dThr(OBz)][dV][Aib]-OMe (SMILES COC(=O)C(C)(C)NC(=O)[C@H](NC(=O)[C@H](NC(=O)C(C)(C)NC(=O)[C@@H](Cc1ccc(C(=O)c2ccccc2)cc1)NC(=O)[C@H](NC(=O)[C@H](NC(=O)C(C)(C)NC(=O)CNC(=O)[C@H](NC(=O)OC(C)(C)C)C(C)C)C(C)C)C(C)C)[C@H](C)OCc1ccccc1)C(C)C) [Boc-D-Val-Gly-Aib-D-Val-D-Val-D-BPA-Aib-D-Thr(OBz)-D-Val-Aib-OMe (SEQ ID NO:11)],100,–,–
Boc-[dV]G[Aib][dV][dV][dI][Aib][dThr(OBz)][dV][Aib][dV][dI][Aib]-OMe (SMILES CC[C@@H](C)[C@@H](NC(=O)[C@H](NC(=O)[C@H](NC(=O)C(C)(C)NC(=O)CNC(=O)[C@H](NC(=O)OC(C)(C)C)C(C)C)C(C)C)C(C)C)C(=O)NC(C)(C)C(=O)N[C@@H](C(=O)N[C@@H](C(=O)NC(C)(C)C(=O)N[C@@H](C(=O)N[C@@H](C(=O)NC(C)(C)C(=O)OC)[C@H](C)CC)C(C)C)C(C)C)[C@H](C)OCc1ccccc1) [D-peptide Boc-Val-Gly-Aib-Val-Val-Ile-Aib-Thr(OBz)-Val-Aib-Val-Ile-Aib-OMe (SEQ ID NO:18)],–,9,–
Boc-[Aib]AL[Aib]AL[Aib]AL[Aib]-OMe (SMILES COC(=O)C(C)(C)NC(=O)[C@H](CC(C)C)NC(=O)[C@H](C)NC(=O)C(C)(C)NC(=O)[C@H](CC(C)C)NC(=O)[C@H](C)NC(=O)C(C)(C)NC(=O)[C@H](CC(C)C)NC(=O)[C@H](C)NC(=O)C(C)(C)NC(=O)OC(C)(C)C) [Boc-Aib-Ala-Leu-Aib-Ala-Leu-Aib-Ala-Leu-Aib-OMe (SEQ ID NO:13)],–,–,2000

# Molecular target: T1, γ-secretase in Chinese hamster ovary …
# Test: cell-based or functional assay
# Remark: another data set of the same source
row,Binder,IC50 (concentration that reduced production of total Aβ by 50% in CHO cells stably transfected with human APP) [nM]
1,"Boc-V[Aib]IA[Thr(OBz)][Aib]IV[Aib]-OMe [Boc-Val-Aib-Ile-Ala-Thr(OBz)-Aib-Ile-Val-Aib-OMe (SEQ ID NO:4), all-L]",2000
2,"Boc-IA[Thr(OBz)][Aib]IV[Aib]-OMe [Boc-Ile-Ala-Thr(OBz)-Aib-Ile-Val-Aib-OMe (SEQ ID NO:2), all-L]",15000
3,"Boc-VG[Aib]VVI[Aib][Thr(OBz)]V[Aib]-OMe [Boc-Val-Gly-Aib-Val-Val-Ile-Aib-Thr(OBz)-Val-Aib-OMe (SEQ ID NO:10), all-L]",3000
4,"Boc-A[Thr(OBz)][Aib]IV[Aib]-OMe [Boc-Ala-Thr(OBz)-Aib-Ile-Val-Aib-OMe (SEQ ID NO:1), all-L]",25000
5,"Boc-GV[Aib]IA[Thr(OBz)][Aib]IV[Aib]-OMe [Boc-Gly-Val-Aib-Ile-Ala-Thr(OBz)-Aib-Ile-Val-Aib-OMe (SEQ ID NO:5), all-L]",5000
6,"Boc-G[Aib]VVI[Aib][Thr(OBz)]V[Aib]-OMe [Boc-Gly-Aib-Val-Val-Ile-Aib-Thr(OBz)-Val-Aib-OMe (SEQ ID NO:9), all-L]",3000
7,"Boc-VVI[Aib][Thr(OBz)]V[Aib]-OMe [Boc-Val-Val-Ile-Aib-Thr(OBz)-Val-Aib-OMe (SEQ ID NO:7), all-L]",6000
8,"Boc-[Aib]VVI[Aib][Thr(OBz)]V[Aib]-OMe [Boc-Aib-Val-Val-Ile-Aib-Thr(OBz)-Val-Aib-OMe (SEQ ID NO:8), all-L]",6000
9,"Boc-[Aib]IA[Thr(OBz)][Aib]IV[Aib]-OMe [Boc-Aib-Ile-Ala-Thr(OBz)-Aib-Ile-Val-Aib-OMe (SEQ ID NO:3), all-L]",10000
10,"Boc-VI[Aib][Thr(OBz)]V[Aib]-OMe [Boc-Val-Ile-Aib-Thr(OBz)-Val-Aib-OMe (SEQ ID NO:6), all-L]",12000
